Source: patent US20160152728A1 (AFFEMED, published 2016)
Where a chain is given by its changes, count along the chain named.

B1: EGFRvIII/CD3 TandAb with EGFRvIII binding domain ABC469, domain order (i) VL^CD3(v64)-VH^EGFRvIII-VL^EGFRvIII-VH^CD3(v64) (bispecific antibody, part only; not given: CD3 v64 domain and linkers, not shown: small tags and cut ends)
chain, part: EVQLVQSGAEVKKPGESLKISCKGSGYSFNSYWIGWVRQMPGKGLEWMGIIYPGDSDTRYSPSFQGQVTISADKSISTAYLQWSSLKASDTAMYYCARLGSSWTNDAFDIWGQGTLVTVSSLTQPPSYESVSVSPGQTARITCSGDTLPKQYAYWYQQKPGQAPVLVIYKDSERPSGIPERFSGSSSGTTVTLTISGVQAEDEADYYCQSVDVSGTYVVFGGGTKLTVL
B2: EGFRvIII/CD3 TandAb with EGFRvIII binding domain ABC471, domain order (i) VL^CD3(v64)-VH^EGFRvIII-VL^EGFRvIII-VH^CD3(v64) (bispecific antibody, part only; not given: CD3 v64 domain and linkers, not shown: small tags and cut ends)
chain, part: EVQLVQSGAEVKKPGESLKISCKGSGYSFNSYWIGWVRQMPGKGLEWMGIIYPGDSANRYSPSFQGQVTISADKSISTAYLQWSSLKASDTAMYYCARLGSSWTNDAFDIWGQGTLVTVSSSYELTQPPSVSVSPGQTARITCSGDYLPKQYAYWYQQKPGQAPVLVIYKDTERPSGIPERFSGSSSGTTVTLTISGVQAEDEADYYCQSVDSSHPSVVFGGGTKLTVL
B3: EGFRvIII/CD3 TandAb with EGFRvIII binding domain ABC471, domain order (iv) VH^EGFRvIII-VL^CD3-VH^CD3-VL^EGFRvIII (bispecific antibody, part only; not given: CD3 domain and linkers, not shown: small tags and cut ends)
chain, part: B2 chain, part
B4: EGFRvIII/CD3 TandAb with EGFRvIII binding domain ABC470, domain order (iv) VH^EGFRvIII-VL^CD3-VH^CD3-VL^EGFRvIII (bispecific antibody, part only; not given: CD3 domain and linkers, not shown: small tags and cut ends)
chain, part: B2 chain, part with A57D, N58T, Y147A, P149D, T172S, H215E, P216T, S217Y
B5: EGFRvIII/CD3 TandAb with EGFRvIII binding domain ABC472, domain order (i) VL^CD3(v64)-VH^EGFRvIII-VL^EGFRvIII-VH^CD3(v64) (bispecific antibody, part only; not given: CD3 v64 domain and linkers, not shown: small tags and cut ends)
chain, part: B2 chain, part with N30G, S31Y, A57H, N58T, Y147A, H215G, P216T, S217Q
B6: EGFRvIII/CD3 TandAb with EGFRvIII binding domain ABC470, domain order (i) VL^CD3(v64)-VH^EGFRvIII-VL^EGFRvIII-VH^CD3(v64) (bispecific antibody, part only; not given: CD3 v64 domain and linkers, not shown: small tags and cut ends)
chain, part: B2 chain, part with A57D, N58T, Y147A, P149D, T172S, H215E, P216T, S217Y
B7: TandAb EGFRvIII(ABC478)/CD3(v64) (bispecific antibody)
tandem diabody polypeptide (homodimer): DIQMTQSPSSLSASVGDRVTITCRSSTGAVTTSNYANWVQQKPGKAPKALIGGTNKRAPGVPSRFSGSLIGDKATLTISSLQPEDFATYYCALWYSNLWVFGQGTKVEIKEVQLVQSGAEVKKPGESLKISCKGSGYSFNSYWIGWVRQMPGKGLEWMGIIYPGDEDTRYSPSFQGQVTISADKSISTAYLQWSSLKASDTAMYYCARLGSSWTNDAFDIWGQGTLVTVSSSYELTQPPSVSVSPGQTARITCSGDALPKQYAYWYQQKPGQAPVLVIYKDTERPSGIPERFSGSSSGTTVTLTISGVQAEDEADYYCQSVDPSGTYVVFGGGTKLTVLEVQLVESGGGLVQPGGSLRLSCAASGFTFSTYAMNWVRQAPGKGLEWVGRIRSKYNNYATYYADSVKDRFTISRDDSKNSLYLQMNSLKTEDTAVYYCARHGNFGNSYVSYFAYWGQGTLVTVSS
notes: also called domain order (i) VL^CD3-VH^EGFRvIII-VL^EGFRvIII-VH^CD3
B8: TandAb EGFRvIII(ABC479)/CD3(v64) (bispecific antibody)
tandem diabody polypeptide (homodimer): DIQMTQSPSSLSASVGDRVTITCRSSTGAVTTSNYANWVQQKPGKAPKALIGGTNKRAPGVPSRFSGSLIGDKATLTISSLQPEDFATYYCALWYSNLWVFGQGTKVEIKQSGAEVKKPGEVQLVESLKISCKGSGYDFSSYWIGWVRQMPGKGLEWMGIIYPGDSDTIYSPSFQGQVTISADKSISTAYLQWSSLKASDTAMYYCARLGSSWTNDAFDIWGQGTLVTVSSSYELTQPPSVSVSPGQTARITCSGAALPEQYAYWYQQKPGQAPVLVIYKDSERPSGIPERFSGSSSGTTVTLTISGVQAEDEADYYCQSVDSSGTFYVFGGGTKLTVLEVQLVESGGGLVQPGGSLRLSCAASGFTFSTYAMNWVRQAPGKGLEWVGRIRSKYNNYATYYADSVKDRFTISRDDSKNSLYLQMNSLKTEDTAVYYCARHGNFGNSYVSYFAYWGQGTLVTVSS
notes: as for B7

What follows are binders tested against T1, EGFRvIII expressed on cells (CHO^EGFRvIII, F98^EGFRvIII) (UniProt P00533 25-1210) (assay: cell-based or functional assay).
T1 construct: whole, on cells; the vIII deletion must be applied; also called deletion mutant EGFRvIII

Point of comparison: B6, Cytotoxic potency EC50 4 nM. Against it:
- B1 — 2.8-fold higher, 11 nM
- B2 — 2.7-fold lower, 1.5 nM
- B3 — within 1.5-fold, 3.1 nM
- B4 — within 1.5-fold, 3.8 nM
- B5 — within 1.5-fold, 4.2 nM

Point of comparison: B3, cytotoxicity improvement factor relative to parental TandAb 69.8 fold. Against it:
- B1 — lower, 2.5 fold
- B2 — lower, 18.2 fold
- B4 — lower, 56.9 fold
- B5 — lower, 6.5 fold
- B6 — lower, 6.8 fold

Each binder was assayed against EGFRvIII-Fc fusion antigen (human) (UniProt P00533) (assay: ELISA on coated EGFRvIII-Fc; TandAb detected with Protein L-HRP, Abs(450nm) [EGFRvIII binding]).

Point of comparison: B2, EC50 (read off the curve) 0.8 nM. Against it:
- B5 — the same, 0.8 nM
- B6 — within 1.5-fold, 0.7 nM

Each binder was assayed against EGFRvIII-Fc fusion antigen (human, UniProt P00533 25-645) in the same assay as above.

Point of comparison: B3, EC50 (read off the curve) 0.6 nM. Against it:
- B1 — 1.7-fold higher, 1 nM
- B7 — 1.7-fold higher, ~1 nM
- B8 — 6.7-fold higher, ~4 nM
- B4 — 1.5-fold higher, 0.9 nM
